The results in this text go back to patent publication US20050090429 (published 2005).

B1: YS-1-68 (peptide)
chain: FGFWWKTFG
modifications: not fully specified; PTR 3219 core; 5- and 6-carboxyfluorescein-GABA conjugate; cyclic GlyS2* to GlyS2*; D-Phe1, D-Trp; C-terminal amide
B2: YS-1-64 (peptide)
chain: FGFWWKTFG
modifications: not fully specified; PTR 3219 core; 5- and 6-carboxyfluorescein-betaAla conjugate; cyclic GlyS2* to GlyS2*; D-Phe1, D-Trp; C-terminal amide
B3: YS-1-70 (peptide)
chain: FGFWWKTFG
modifications: not fully specified; PTR 3219 core; 5-(aminothionyl)fluorescein-aminopentanoyl conjugate; cyclic GlyS2* to GlyS2*; D-Phe1, D-Trp; C-terminal amide
B4: PTR 1007A-01 (peptide)
chain: XFWWKTFG
modifications: X = Dab; 5- and 6-carboxyfluorescein conjugate; backbone cyclic (Dab* to GlyC3*); D-Trp4; C-terminal GlyC3, amide
B5: YS-1-62 (peptide)
chain: FGFWWKTFG
modifications: not fully specified; PTR 3219 core; 5-(aminothionyl)fluorescein-betaAla conjugate; cyclic GlyS2* to GlyS2*; D-Phe1, D-Trp; C-terminal amide
B6: YS-1-86 (peptide)
chain: FCFWWKTFG
modifications: not fully specified; PTR 3207 core; 5-(aminothionyl)fluorescein-GABA conjugate; cyclic Cys* to GlyS2*; D-Phe1, D-Trp; C-terminal amide
B7: YS-1-48 (peptide)
chain: GFWWKTFG
modifications: not fully specified; PTR 3213 core; 5- and 6-carboxyfluorescein-GABA conjugate; cyclic GlyS2* to GlyS2*; D-Trp; C-terminal amide
B8: PTR 1017A-01 (peptide)
chain: KXFWWKTFG
modifications: not fully specified; 5- and 6-carboxyfluorescein-Lys; X = GABA; backbone cyclic (GABA* to GlyC3*); D-Trp; C-terminal amide
B9: YS-1-29 (peptide)
chain: XFWWKTFG
modifications: not fully specified; PTR 3173-NH2 core; X = GABA; fluorescein amide, aminopentanoic linker; backbone cyclic; D-Trp; C-terminal amide
B10: YS-1-58 (peptide)
chain: FGFWWKTFG
modifications: not fully specified; PTR 3219 core; fluorescein thiourea, Gly linker; cyclic GlyS2* to GlyS2*; D-Phe1, D-Trp; C-terminal amide
B11: YS-1-44 (peptide)
chain: GFWWKTFG
modifications: not fully specified; PTR 3213 core; fluorescein amide, betaAla linker; cyclic GlyS2* to GlyS2*; D-Trp; C-terminal amide
B12: YS-1-54 (peptide)
chain: GFWWKTFG
modifications: not fully specified; PTR 3213 core; fluorescein thiourea, no linker; cyclic GlyS2* to GlyS2*; D-Trp; C-terminal amide
B13: YS-1-76 (peptide)
chain: FGFWWKTFG
modifications: not fully specified; PTR 3219 core; fluorescein amide, aminohexanoic linker; cyclic GlyS2* to GlyS2*; D-Phe1, D-Trp; C-terminal amide
B14: YS-1-52 (peptide)
chain: GFWWKTFG
modifications: not fully specified; PTR 3213 core; fluorescein amide, aminopentanoic linker; cyclic GlyS2* to GlyS2*; D-Trp; C-terminal amide

For one assay, the target named is T1, human SST-R2 (human, UniProt P30874). Briefly: competition, 125I-Tyr11-SRIF-14 radioligand.
T1 sequence (P30874 whole entry): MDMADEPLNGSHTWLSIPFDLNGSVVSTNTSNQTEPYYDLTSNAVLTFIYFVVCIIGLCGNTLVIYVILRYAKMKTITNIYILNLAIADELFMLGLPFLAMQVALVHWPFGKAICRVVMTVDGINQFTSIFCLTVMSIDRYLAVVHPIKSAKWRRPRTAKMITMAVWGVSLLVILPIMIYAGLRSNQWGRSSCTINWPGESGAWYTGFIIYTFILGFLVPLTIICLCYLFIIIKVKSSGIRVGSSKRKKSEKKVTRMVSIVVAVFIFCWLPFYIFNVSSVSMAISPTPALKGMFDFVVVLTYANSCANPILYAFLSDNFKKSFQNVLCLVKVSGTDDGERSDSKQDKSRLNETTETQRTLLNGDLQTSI
Regarding B1, the IC50 (commonly the concentration that inhibits the measured activity by half) turned out to be 5.7 nM.

As to B2, the IC50 worked out at 3.9 nM.

The molecule B3 registered a concentration for half-maximal inhibition (IC50) of 2.9 nM.

B4: the IC50 stood at 78 nM.

In the case of B5, the IC50 turned out to be 3 nM.

As to B6, the half-maximal inhibitory concentration (IC50) is 1.7 nM.

B7 came in with a half-maximal inhibitory concentration (IC50) of 5.4 nM.

Turning to B8, the IC50 came to 13.2 nM.

The target of another assay is T1, human SST-R2. Briefly: competition, SRIF-14 displacement.
For the molecule B9, the IC50 was found to be 32 nM.

As for B10, the half-maximal inhibitory concentration (IC50) is 18 nM.

B11: the IC50 came to 19 nM.

For the molecule B12, the IC50 came out at 48 nM.

As for B13, the IC50 worked out at 13 nM.

In turn, B14 registered an IC50 of 9 nM.
